Variants at the floor of the assay were thinned out.
B1: TPR 5TU (parent)
chain: GGAUCUUCUCGAUCUAACAAAAAAGACAAAUCUGCCACAAAGCUUGAGAGCAUCUUCGGAUGCAGAGGCGGCAGCCUUCGGUGGCGCGAUAGCGCCAACGUUCUCAACUAUGACACGCAAAACGCGUGCUCCGUUGAAUGGAGUUUAUCAUG

Variants of: B1
Assay: polymerase ribozyme fitness, log enrichment relative to wild type (log ratio); higher = more active; in vitro selection for triplet polymerase activity
Summary of the method: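 Fitness is a logarithmic measure of how a genotype enriched relative to the wild type, with replicate averages weighted by inverse variance. The logarithm uses base 2, and enrichment came from Illumina sequencing of input and output libraries. Those libraries were PCR-built, transcribed mutants of each subunit of a heterodimeric triplet polymerase ribozyme, passed through one triplicate in vitro selection round that included frozen incubation at −7 °C, gel excision of extended constructs and streptavidin-bead capture. Genotypes were kept only if they had ≥10 input reads and ≥1 read per output.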

**Q.** With GGAUCUUCUCGAUCUAACAACAAAGACAACUCUGCCACAACGCUUGAGAGCAUCUUCGAAUGCAGAGGCGGCAGCCUUCGGUGGCGCGAUAGCGUCAACGUUCUCAACUAUGACACGCAAAACGCGUGCUCCGUUGAAUGGAGUUUAUCAUG [A21C A30C A41C G59A C95U] as the variant, how does the “polymerase ribozyme fitness (log ratio)” value read?
**A.** ≤ -4.2

**Q.** For GGAUCUUCUCGAUCUAACAACAAAGACAGAUCUGCCACAAAGCGUGAGAGCAUCUUCGGAUGUAGAGUCGGCAGCCUUCGGUGGCGCGAUAGCGCCAACGUUUUCAACUAUGACACGCAAAACGCGUGCUCCGUUGGAUGGAUUUUAUCAUG [A21C A29G U44G C63U G68U C103U A137G G143U], which “polymerase ribozyme fitness (log ratio)” value is on record?
**A.** ≤ -4.2

**Q.** For GGAUCUUCUCGAUCUAACAACAAAGACAAAUCUGCCACAAAGCUUGAGAGCAUCUUCGGGUGCAGAGGCGGCUGCCUUCGGUGGCGCGAUAGGGCCAACGUUCUCAACUAUGACACGCAAAACGCGUGCUCCGUUGUAUGGAGUUUAUCAUG [A21C A60G A73U C93G A137U], which “polymerase ribozyme fitness (log ratio)” value is on record?
**A.** ≤ -4.2

**Q.** For GGAUCUUCUCGAUCUAACAACAAAGACAAAUCUGCCACAUAGCUUGAGAGCAUCUUCGGAUGCAGAGGCGGCAGCCUUCGGUGGCGCGAUAGAGCCAACGUUCUCAACUAUGACACGCAAAACGCGUGCUCCGUUGAAUGGAGUUUAUCAUG [A21C A40U C93A], which “polymerase ribozyme fitness (log ratio)” value is on record?
**A.** -1.84

**Q.** With GGAUCUUCUCGAUCUAACAACAAAGACAAAUCUGCCACAAAGCUUGAGAGCAUCUUCGGGUGCAGAGGCGGCAGCCUUCGGUGGCGCGAUAGCGCCAACGUUCUCAACUAUGACACGCAAAACGCGUGCUCCGUUGAAUGGAGUUUAUCAUG [A21C A60G] as the variant, how does the “polymerase ribozyme fitness (log ratio)” value read?
**A.** 0.714

**Q.** For GGAUCUUCUCGAUCUAACAACAAAGACAAAUCUGCCACAAAGCUUGAGAGCAUCUUCGGUUGCAGAGGCGGCAGCCUUCGGUGGCGCGAUAGCGCCAACGUUCUCAACUAUGACACGCAAAACGCGUGCUCCGUUGAAUGGAGUUUAUCAUG [A21C A60U], which “polymerase ribozyme fitness (log ratio)” value is on record?
**A.** -0.52

**Q.** With GGAUCUUCUCGAUCUAACAACAAAGACAACUCUGCCACAAUGCUUGAGAGCAUCUUCGGAUGCUGAGGCGGCAGCCUUCGGUGGCGCGAUAGCGCCAACGUUGUCAACUAUGACCCGCCAAACGCGUACUCCUUUGAAUGGAGUUUAUCAUG [A21C A30C A41U A64U C103G A115C A119C G128A G133U] as the variant, how does the “polymerase ribozyme fitness (log ratio)” value read?
**A.** ≤ -4.2

**Q.** For GGAUCUUCUCGAUCUAACAACAAAGACAAAUCUGCCACAAAGCUUGAGAGCCUCUUCGGAUGCAGAGACGGCAGCCUUCGGUGGCGCGAUAGCGCCAACGGUCUCAACUAUGACACGCAAAACGCGUGCUCCGUUGAAUGGAGUUUAUCAUG [A21C A52C G68A U101G], which “polymerase ribozyme fitness (log ratio)” value is on record?
**A.** ≤ -4.2

**Q.** For GGAUCUUCUCGAUCUAACAACAAAGACUAAUCUGCCACAAAGCUUGAGAGCAUCUUCGCAUGCAGAGGCGGCAGCCUUCGGUGGCGCGAUAGCGCCGACGUUCUCAACUAUGACACGCAAAACGCGUGCUCCGCUGAAUGGAGUUUAUCAUG [A21C A28U G59C A97G U134C], which “polymerase ribozyme fitness (log ratio)” value is on record?
**A.** ≤ -4.2

**Q.** For GGAUCUUCUCGAUCUAACAACAAAGACAAAUCUGCCACAAUGCUUGAGAGCAUCUUUGGAUGCAGAGGCGGCAGCCUUCGGUGGCGCGAUAGCGCCAACGUUCUCAACUAUGACACGCUAAACGCGUGCUCCGAUGAAUGGAGAUUAUCAUG [A21C A41U C57U A119U U134A U144A], which “polymerase ribozyme fitness (log ratio)” value is on record?
**A.** -4.17

**Q.** For GGAUCUUCUCGAUCUAACAACAAAGACAAAUCUGCCACAAUGCUUGAGAGCAUCUUCGGAUGCAGAGGCGGCAGCUUUCGGUGACGCGAUAGCGUCAACGUUCUCAACUAGGACACGCAAAACGCGUGCUCCGUUGAAUGGAGUUUAUCAUG [A21C A41U C76U G84A C95U U111G], which “polymerase ribozyme fitness (log ratio)” value is on record?
**A.** -4.18

**Q.** For GGAUCUUCUCGAUCUAACAACAAAGACAAAUCUGCCUCAAAGCUUGAGAGCAUCUUCGGAUGCAGAGGCGGCAGCUUUCGGUGGCGUGAUAGCGCCAACGUUCUCAACUAUGACACGCAAAACGCGUGCUCCGUUGAAUGGAGUUUAUCAUG [A21C A37U C76U C87U], which “polymerase ribozyme fitness (log ratio)” value is on record?
**A.** -1.62

**Q.** For GGAUCUUCUCGAUCUAACAACAAAGACAAAUCUGCCACACAGCUUGAGAGCAUCUUCGGAUGCAGAGGCGGCAGCCUUCGGUGGCGCGAUAGCGCCAAGGUUCUCAACUAUGACACGCAAAACGCGUGCUCCGUUGAAUGGAGUUUAUCAUG [A21C A40C C99G], which “polymerase ribozyme fitness (log ratio)” value is on record?
**A.** -0.927

**Q.** Which “polymerase ribozyme fitness (log ratio)” value does the source give for GGAUCUUCUCGAUCUAACAACAAAGACAAAUCUGCCCCAAAGCUUGAGAGCAUCUUCGGAUGCAGAGGCGGCAGCCUUCGGUGACGCGAUAGCGCCAACGUUCUCAACUAUGACACGCAAAACGCGUGCUCCGUUGAAUGGAGUUUAUCAUG [A21C A37C G84A] here?
**A.** 0.0671

**Q.** For GGAUCUUCUCGAUCUAACAACAAAGACAAAUCUGCCACAAAGCUUGAGAGCUUCUUCGGAUGCAGAGGCGGCAACCUUCGGUGGCGCGAUAGCCCCAACGUUCUCAACUAUGACACGCAAUACGCGUGCUCCGUUGAAUGGAGUUUAUCAUG [A21C A52U G74A G94C A121U], which “polymerase ribozyme fitness (log ratio)” value is on record?
**A.** ≤ -4.2

**Q.** For GGAUCUUCUCGAUCUAACAACAAAGACAAAUCUGCCACAACGCUUGAGAGCAUCUUCGGAUGCAGAGGCGGCAGCCUUCGGUGGCGCGAUAGCGCCAACGUUCUCAACUAUGACGCGCAAAACGCGUGCUCCGUUGAAUGGAGUUUAUCAUG [A21C A41C A115G], which “polymerase ribozyme fitness (log ratio)” value is on record?
**A.** -1.51

**Q.** For GGAUCUUCUCGAUCUAACAACAAAGACAAAUCUGCCACAAAGCUUGAGAGCCUCUUCGGAUGCAGAGGCGGCAGCCUUCGGUGGUGCGAUAGCGCCAACGUUCUCAACUAUGACACCCAAAACGCGUGCUCCGUUGAAUGGAGUUUAUCAUG [A21C A52C C85U G117C], which “polymerase ribozyme fitness (log ratio)” value is on record?
**A.** -0.924

**Q.** Which “polymerase ribozyme fitness (log ratio)” value does the source give for GGAUCUUCUCGAUCUAACAACAAAGACAAAUCUGCCACAAUGCUUGAGAGCAUCUUCGGAUGCAGAGGCGACAGCCUUCGGUGGCGCGAUAGCGCCAUCGUUCUCAACUAUGACACGCAAAACGCGUGCUCCGUUUAAUGGAGUUUUCCAUG [A21C A41U G71A A98U G136U A147U U148C] here?
**A.** ≤ -4.2

**Q.** Which “polymerase ribozyme fitness (log ratio)” value does the source give for GGAUCUUCUCGAUCUAACAACAAAGACAAAUCUGCCACACAGCUUGAAAGCAUCUUCGGAUGCAGAGGCGGCAGCCUUCGGUGGAGCGAUAGCCCCAACGUUCUCAACUAUGACACGCAAAACGCGUGCUCCGUUGAAUGGAGUUUAUCAUG [A21C A40C G48A C85A G94C] here?
**A.** -2.1

— the RNAGym collection of RNA variant scans (doi:10.1073/pnas.2313332121)
